Numbering of substitutions follows the chain as printed.
T1: human FcγRIIa type R extracellular domain with C-terminal His tag (human, UniProt P12318 34-217)
T1 construct: extracellular domain; also called FcγRIIaR; FcγRIIa(R)
T1 sequence (looked up): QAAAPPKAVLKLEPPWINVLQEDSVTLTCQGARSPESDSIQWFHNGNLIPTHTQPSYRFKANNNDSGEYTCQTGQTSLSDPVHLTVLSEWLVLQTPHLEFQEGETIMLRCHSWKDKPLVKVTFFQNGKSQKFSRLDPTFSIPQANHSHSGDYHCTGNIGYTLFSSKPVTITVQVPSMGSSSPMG

T2: human FcγRIIb extracellular domain with C-terminal His tag (human, UniProt P31994 43-217)
T2 construct: extracellular domain
T2 sequence (looked up): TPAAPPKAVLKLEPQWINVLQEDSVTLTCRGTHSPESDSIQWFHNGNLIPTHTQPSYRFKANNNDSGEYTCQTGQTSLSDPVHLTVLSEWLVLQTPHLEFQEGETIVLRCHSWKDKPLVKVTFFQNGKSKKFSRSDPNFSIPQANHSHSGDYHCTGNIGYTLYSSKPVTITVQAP

B1: IL6R-BP445/IL6R-L (antibody, human IgG1, kappa)
heavy: QVQLQESGPGLVKPSETLSLTCAVSGHSISHDHAWSWVRQPPGEGLEWIGFISYSGITNYNPSLQGRVTISRDNSKNTLYLQMNSLRAEDTAVYYCARSLARTTAMDYWGEGTLVTVSSASTKGPSVFPLAPSSKSTSGGTAALGCLVKDYFPEPVTVSWNSGALTSGVHTFPAVLQSSGLYSLSSVVTVPSSSLGTQTYICNVNHKPSNTKVDKKVEPKSCDKTHTCPPCPAPDLLGDDSVFLFPPKPKDTLMISRTPEVTCVVIDVAEEDGEVKFNWYVDGVEVHNAKTKPREEQYNSTYRVVSVLTVLHQDWLNGKEYKCKVSNKALPRPIEKTISKAKGQPREPQVYTLPPSRDELTKNQVSLTCLVKGFYPSDIAVEWESNGQPENNYKTTPPVLDSDGSFFLYSKLTVDKSRWQQGNVFSCSVMHEALHNHYTQESLSLSP
light: not shown
notes: copies: 2 + 2
B2: IL6R-BP531/IL6R-L (antibody, human IgG1, kappa)
heavy: B1 heavy with A269G, Y298D, P398M
light: not shown
notes: copies: 2 + 2
B3: IL6R-BP501/IL6R-L (antibody, human IgG1, kappa)
heavy: B1 heavy with D235E, R332A
light: not shown
notes: copies: 2 + 2
B4: IL6R-BP481/IL6R-L (antibody, human IgG1, kappa)
heavy: B1 heavy with R332A
light: not shown
notes: copies: 2 + 2
B5: IL6R-BP494/IL6R-L (antibody, human IgG1, kappa)
heavy: B1 heavy with D235E, I266V, Y298D
light: not shown
notes: copies: 2 + 2
B6: IL6R-BP537/IL6R-L (antibody, human IgG1, kappa)
heavy: B1 heavy with D235E, A269G
light: not shown
notes: copies: 2 + 2
B7: IL6R-BP435/IL6R-L (antibody, human IgG1, kappa)
heavy: B1 heavy with I266V, A269S, E270D, Y298D, K328A, I334T
light: not shown
notes: copies: 2 + 2
B8: IL6R-BP535/IL6R-L (antibody, human IgG1, kappa)
heavy: B1 heavy with A269G, Y298D, A329G, P398M
light: not shown
notes: copies: 2 + 2
B9: IL6R-BP506/IL6R-L (antibody, human IgG1, kappa)
heavy: B1 heavy with E274P, Y298D
light: not shown
notes: copies: 2 + 2
B10: IL6R-BP555/IL6R-L (antibody, human IgG1, kappa)
heavy: B1 heavy with D235E, E274D, Y298D
light: not shown
notes: copies: 2 + 2
B11: IL6R-BP268/IL6R-L (antibody, human IgG1, kappa)
heavy: B1 heavy with I266V, A269S, Y298D, R332A
light: not shown
notes: copies: 2 + 2
B12: IL6R-BP553/IL6R-L (antibody, human IgG1, kappa)
heavy: B1 heavy with E274D
light: not shown
notes: copies: 2 + 2
B13: IL6R-BP426/IL6R-L (antibody, human IgG1, kappa)
heavy: B1 heavy with I266V, E271D
light: not shown
notes: copies: 2 + 2
B14: IL6R-BP504/IL6R-L (antibody, human IgG1, kappa)
heavy: B1 heavy with E274P, R332A
light: not shown
notes: copies: 2 + 2
B15: IL6R-BP479/IL6R-L (antibody, human IgG1, kappa)
heavy: B1 heavy with V268L, R332A
light: not shown
notes: copies: 2 + 2
B16: IL6R-BP490/IL6R-L (antibody, human IgG1, kappa)
heavy: B1 heavy with D235E
light: not shown
notes: copies: 2 + 2
B17: IL6R-BP532/IL6R-L (antibody, human IgG1, kappa)
heavy: B1 heavy with A269S, Y298D, P398M
light: not shown
notes: copies: 2 + 2
B18: IL6R-BP264/IL6R-L (antibody, human IgG1, kappa)
heavy: B1 heavy with I266V, A269S, Y298D
light: not shown
notes: copies: 2 + 2
B19: IL6R-BP484/IL6R-L (antibody, human IgG1, kappa)
heavy: B1 heavy with I266V, E271D, R332A
light: not shown
notes: copies: 2 + 2
B20: IL6R-BP534/IL6R-L (antibody, human IgG1, kappa)
heavy: B1 heavy with A269S, Y298D, P398L
light: not shown
notes: copies: 2 + 2
B21: IL6R-BP483/IL6R-L (antibody, human IgG1, kappa)
heavy: B1 heavy with I266V, V268L, R332A
light: not shown
notes: copies: 2 + 2
B22: IL6R-BP269/IL6R-L (antibody, human IgG1, kappa)
heavy: B1 heavy with D235E, I266V, A269S, Y298D, R332A
light: not shown
notes: copies: 2 + 2
B23: IL6R-BP495/IL6R-L (antibody, human IgG1, kappa)
heavy: B1 heavy with D235E, I266V, A269G, Y298D
light: not shown
notes: copies: 2 + 2
B24: IL6R-BP552/IL6R-L (antibody, human IgG1, kappa)
heavy: B1 heavy with E274D, Y298D
light: not shown
notes: copies: 2 + 2
B25: IL6R-BP507/IL6R-L (antibody, human IgG1, kappa)
heavy: B1 heavy with E274P
light: not shown
notes: copies: 2 + 2
B26: IL6R-BP262/IL6R-L (antibody, human IgG1, kappa)
heavy: B1 heavy with D235E, I266V, A269S, R332A
light: not shown
notes: copies: 2 + 2
B27: IL6R-BP480/IL6R-L (antibody, human IgG1, kappa)
heavy: B1 heavy with I266V, V268L, A269S, E271D, R332A
light: not shown
notes: copies: 2 + 2

The binders below were run against T3, human FcγRIa extracellular domain with C-terminal His tag (human, UniProt P12314 16-292) (assay: SPR (Biacore)).
T3 construct: extracellular domain
T3 sequence (P12314 16-292): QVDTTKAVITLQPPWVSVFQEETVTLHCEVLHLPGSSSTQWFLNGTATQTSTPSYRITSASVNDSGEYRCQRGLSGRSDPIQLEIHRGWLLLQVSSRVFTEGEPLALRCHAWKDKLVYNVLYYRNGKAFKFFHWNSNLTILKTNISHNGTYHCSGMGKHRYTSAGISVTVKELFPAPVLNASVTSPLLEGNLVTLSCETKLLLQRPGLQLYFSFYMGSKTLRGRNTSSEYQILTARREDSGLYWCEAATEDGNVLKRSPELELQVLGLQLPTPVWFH

Row | Kd [nM] | Binder
1 | 2 | B1
2 | 9.4 | B2
3 | 2.1 | B3
4 | 1 | B4
5 | 3.9 | B5
6 | 29 | B6
7 | 1 | B7
8 | 11 | B8
9 | 3.1 | B9
10 | 9.4 | B10
11 | 4.5 | B11
12 | 3.4 | B12
13 | 1 | B13
14 | 1.4 | B14
15 | 5.3 | B15
16 | 4.5 | B16
17 | 12 | B17
18 | 7.4 | B18
19 | 0.82 | B19
20 | 9.3 | B20
21 | 1.3 | B21
22 | 14 | B22
23 | 8.3 | B23
24 | 3.2 | B24
25 | 2.6 | B25
26 | 10 | B26

What follows are binders tested against T1, human FcγRIIa type R extracellular … (assay: SPR (Biacore)).

Row | Kd [nM] | Binder
27 | 80 | B1
28 | 120 | B2
29 | 400 | B4
30 | 250 | B5
31 | 270 | B6
32 | 92 | B8
33 | 120 | B9
34 | 160 | B10
35 | 86 | B12
36 | 450 | B14
37 | 900 | B15
38 | 110 | B16
39 | 94 | B17
40 | 350 | B18
41 | 6300 | B27
42 | 780 | B19
43 | 91 | B20
44 | 1300 | B21
45 | 2200 | B22
46 | 97 | B24
47 | 100 | B25
48 | 2000 | B26

Each binder was assayed against T2, human FcγRIIb extracellular domain with … (assay: SPR (Biacore)).

Row | Kd [nM] | Binder
49 | 2.6 | B1
50 | 3.8 | B2
51 | 25 | B3
52 | 19 | B4
53 | 6.6 | B5
54 | 6.9 | B6
55 | 4 | B8
56 | 3.4 | B9
57 | 4.1 | B10
58 | 92 | B11
59 | 3.1 | B12
60 | 24 | B14
61 | 56 | B15
62 | 2.4 | B16
63 | 3.2 | B17
64 | 200 | B27
65 | 46 | B19
66 | 3 | B20
67 | 78 | B21
68 | 110 | B22
69 | 9.7 | B23
70 | 2.6 | B24
71 | 2.9 | B25
72 | 120 | B26

These binders were tested against T2, human FcγRIIb extracellular domain with … (assay: SPR (Biacore), ratio of KDs).

Row | KD(IIaH)/KD(IIb) | KD(IIaR)/KD(IIb) | Binder
73 | 350 | 20.5 | B4
74 | 821 | 38.6 | B5
75 | 658 | 18.5 | B14
76 | 268 | 16.1 | B15
77 | 241 | 17.1 | B19
78 | 231 | 16.8 | B21
79 | 637 | 19.6 | B22
80 | 375 | 17 | B26

Each binder was assayed against T1, human FcγRIIa type R extracellular … (assay: SPR (Biacore), parent IL6R-B3/IL6R-L).

Row | KD(IIaR) parent/KD(IIaR) altered polypeptide | Binder
81 | 2.8 | B4
82 | 4.3 | B5
83 | 2.4 | B14
84 | 1.2 | B15
85 | 1.4 | B19
86 | 0.8 | B21
87 | 0.5 | B22
88 | 0.5 | B26

Each binder was assayed against T2, human FcγRIIb extracellular domain with … (assay: SPR (Biacore), parent IL6R-B3/IL6R-L).

Row | KD(IIb) parent/KD(IIb) altered polypeptide | Binder
89 | 160 | B4
90 | 471 | B5
91 | 128 | B14
92 | 55.5 | B15
93 | 67.8 | B19
94 | 39.7 | B21
95 | 27.4 | B22
96 | 25.8 | B26
